Measured values taken from patent US20260116965A1 (COHERENT BIOPHARMA SUZHOU, published 2026).

T1: Transient receptor potential cation channel subfamily V member 6 (TRPV6) protein (human, UniProt Q9H1D0 1-765)
T1 construct: Calcium channel; also called human TRPV6 protein
T1 sequence: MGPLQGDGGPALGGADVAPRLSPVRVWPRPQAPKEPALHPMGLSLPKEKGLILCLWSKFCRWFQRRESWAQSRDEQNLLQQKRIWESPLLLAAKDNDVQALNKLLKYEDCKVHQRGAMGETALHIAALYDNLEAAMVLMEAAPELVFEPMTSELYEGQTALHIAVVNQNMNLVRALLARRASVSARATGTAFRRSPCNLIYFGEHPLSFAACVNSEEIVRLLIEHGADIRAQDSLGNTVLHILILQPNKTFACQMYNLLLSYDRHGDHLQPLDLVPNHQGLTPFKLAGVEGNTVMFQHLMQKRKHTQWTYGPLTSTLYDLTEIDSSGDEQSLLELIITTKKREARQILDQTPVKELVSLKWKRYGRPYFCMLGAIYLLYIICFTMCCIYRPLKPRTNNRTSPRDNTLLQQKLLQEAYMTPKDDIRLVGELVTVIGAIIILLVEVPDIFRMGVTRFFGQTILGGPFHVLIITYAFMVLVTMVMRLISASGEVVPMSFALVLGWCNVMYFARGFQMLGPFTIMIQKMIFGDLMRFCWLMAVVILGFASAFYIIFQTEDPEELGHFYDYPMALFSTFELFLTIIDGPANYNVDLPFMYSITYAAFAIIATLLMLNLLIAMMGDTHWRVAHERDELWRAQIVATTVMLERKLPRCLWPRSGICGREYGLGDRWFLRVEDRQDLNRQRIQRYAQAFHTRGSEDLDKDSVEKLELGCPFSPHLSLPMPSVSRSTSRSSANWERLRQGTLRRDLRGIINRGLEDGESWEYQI

B1: CB-Anti-0001 antibody (antibody, IgG1, V domains shown)
VH: QVQVQQPGAELVKPGTSVKLSCKASGYTFTSYWMHWVKQRPGQGLEWIGEIDPSDGYTNYNQKFRGKATLSVDKSSTTAYMQLSSLTSEDSAVYYCGWAGDFWGQGTTLTVSS
VL: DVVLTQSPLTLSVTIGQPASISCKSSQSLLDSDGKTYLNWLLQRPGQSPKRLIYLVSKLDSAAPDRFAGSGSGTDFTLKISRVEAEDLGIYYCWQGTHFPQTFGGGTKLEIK
notes: also called antibody of hybridoma cell line 12CT 9.5.1; 12CT9.5.1
B2: CB-Anti-0002 antibody (antibody, IgG1, V domains shown)
VH: EVKLEESGGGLVQPGGSMKLSCVASGFTFSYYWMNWVRQSPEKGLEWVAEIRLKSHNYATHYAESVKGRFTISRDDSKSSVYLQMNNLRSEDTGIYYCARLAYDGERYYYALDYWGQGTSVTVSS
VL: DIVMSQSPSSLAVSVGEKFTMSCKSSQSLLYSNNQKNYLAWYQQKPGQSPKLLIYWASTRESGVPDRFTGSGYGTDFTLTISSVKAEDLAVYYCQQYYSYPFTFGSGTKLEIK
notes: also called antibody of hybridoma cell line 16CT 4.1.1.2; 16CT4.1.1.2

Biological target: T1, Transient receptor potential cation …
Experiment: IHC on tissue slices

| Binder | binding result |
| --- | --- |
| B1 | binds |
| B2 | binds |
